In experiment [1] the target is T1, c-Myc 펩타이드 (…).
T1 sequence (peptide): MPLNVSFTSRNYDLD
The experiment in a line: ELISA, c-Myc peptide coated at 2 ug/ml, scFv at 1 ug/ml (replicate), anti-HA peroxidase detection.

The target of experiment [2] is T1, c-Myc 펩타이드 (…). The experiment in a line: ELISA, c-Myc peptide coated at 2 ug/ml, scFv at 2 ug/ml (replicate), anti-HA peroxidase detection.
Experiment [3] addresses T1, c-Myc 펩타이드 (…). Description: ELISA, c-Myc peptide coated at 2 ug/ml, scFv at 4 ug/ml (replicate), anti-HA peroxidase detection.
Experiment [4] deals with T1, c-Myc 펩타이드 (…). The experiment in a line: ELISA, c-Myc peptide coated at 2 ug/ml, scFv at 0.5 ug/ml, anti-HA peroxidase detection.
The target in experiment [5] is T1, c-Myc 펩타이드 (…). The experiment in a line: ELISA, c-Myc peptide coated at 2 ug/ml, scFv at 0.5 ug/ml (replicate), anti-HA peroxidase detection.
For experiment [6], the target named is T1, c-Myc 펩타이드 (…). Description: ELISA, c-Myc peptide coated at 2 ug/ml, scFv at 1 ug/ml, anti-HA peroxidase detection.
The target of experiment [7] is T1, c-Myc 펩타이드 (…). Description: ELISA, c-Myc peptide coated at 2 ug/ml, scFv at 4 ug/ml, anti-HA peroxidase detection.
Experiment [8] addresses T1, c-Myc 펩타이드 (…). Description: ELISA, c-Myc peptide coated at 2 ug/ml, scFv at 2 ug/ml, anti-HA peroxidase detection.

B1: clone 1D1 항체 (scFv, anti-c-Myc-tag 1D1) (scFv)
scFv: LTQPSSVSANLGETQDHCSGGGSNSAYGWFQQKSPGSAPVTLIYDNTNRPSNIPSRFSGSKSGSTATLTITGVQADDEAVYYCGSAGSSYVGIFGAGTTLTVLGQSSRSSSGGGSSGGGGSAVTLDESGGGLQTPGGGLSLVCKGSGFTFSSYQMNWIRQAPGKGLEFVAAINRFGNRTGYGAAVKGRATISRGDGQSTVRLQLNNLRAEDTATYYCAKAAYGYCGSGGWRDVAGTDAWGHGTEVIVSSTS
On to B1, for which the absorbance at 450 nm (antigen(peptide) coating) turned out to be 0.788 OD 450nm with c-Myc 펩타이드 (…) [1]; 1.3 OD 450nm in the experiment with c-Myc 펩타이드 (…) [2]; 2.17 OD 450nm with c-Myc 펩타이드 (…) [3]; 0.415 OD 450nm with c-Myc 펩타이드 (…) [4]; 0.431 OD 450nm with c-Myc 펩타이드 (…) [5]; 0.808 OD 450nm with c-Myc 펩타이드 (…) [6]. For the same molecule, the absorbance at 450 nm (antigen(peptide) coating) stood at 2.15 OD 450nm with c-Myc 펩타이드 (…) [7] and 1.31 OD 450nm with c-Myc 펩타이드 (…) [8]. Besides, the delta (absorbance at 450 nm minus background control) in the experiment with c-Myc 펩타이드 (…) [1] came to 0.735 OD 450nm; with c-Myc 펩타이드 (…) [2], 1.25 OD 450nm; in the experiment with c-Myc 펩타이드 (…) [3] it was 2.11 OD 450nm; in the experiment with c-Myc 펩타이드 (…) [4], 0.363 OD 450nm; in the experiment with c-Myc 펩타이드 (…) [5], 0.379 OD 450nm; in the experiment with c-Myc 펩타이드 (…) [6] it was 0.756 OD 450nm. The figures for the delta (absorbance at 450 nm minus background control) with c-Myc 펩타이드 (…) [7] and with c-Myc 펩타이드 (…) [8] were 2.1 OD 450nm and 1.26 OD 450nm, respectively.

For the origin of these results see patent publication KR20210116113A.
